Measured values from article PMC8601423 (PLoS ONE, 2021).

B1: SARS-CoV-2 RBM peptide S438-K462 with S438-D442 removed (N-terminal truncation, on peptide array) (peptide)
peptide: SKVGGNYNYLYRLFRKSNLK
B2: SARS-CoV-2 RBM peptide E484-Y508 with Q506-Y508 removed (C-terminal truncation, on peptide array) (peptide)
peptide: EGFNCYFPLQSYGFQPTNGVGY
B3: SARS-CoV-2 RBM 20mer F486-Y505 (on peptide array) (peptide)
peptide: not shown
B4: SARS-CoV-2 RBM peptide S438-K462 with S459-K462 removed (C-terminal truncation, on peptide array) (peptide)
peptide: SNNLDSKVGGNYNYLYRLFRK
B5: SARS-CoV-2 RBM peptide E484-Y508 with E484 and G485 removed (N-terminal truncation, on peptide array) (peptide)
peptide: FNCYFPLQSYGFQPTNGVGYQPY

molecular target: human ACE2-Fc (Q18-S740) recombinant protein (human, UniProt Q9BYF1 18-740); experiment: peptide or protein array; conditions: both partners purified
Sequence (Q9BYF1 18-740): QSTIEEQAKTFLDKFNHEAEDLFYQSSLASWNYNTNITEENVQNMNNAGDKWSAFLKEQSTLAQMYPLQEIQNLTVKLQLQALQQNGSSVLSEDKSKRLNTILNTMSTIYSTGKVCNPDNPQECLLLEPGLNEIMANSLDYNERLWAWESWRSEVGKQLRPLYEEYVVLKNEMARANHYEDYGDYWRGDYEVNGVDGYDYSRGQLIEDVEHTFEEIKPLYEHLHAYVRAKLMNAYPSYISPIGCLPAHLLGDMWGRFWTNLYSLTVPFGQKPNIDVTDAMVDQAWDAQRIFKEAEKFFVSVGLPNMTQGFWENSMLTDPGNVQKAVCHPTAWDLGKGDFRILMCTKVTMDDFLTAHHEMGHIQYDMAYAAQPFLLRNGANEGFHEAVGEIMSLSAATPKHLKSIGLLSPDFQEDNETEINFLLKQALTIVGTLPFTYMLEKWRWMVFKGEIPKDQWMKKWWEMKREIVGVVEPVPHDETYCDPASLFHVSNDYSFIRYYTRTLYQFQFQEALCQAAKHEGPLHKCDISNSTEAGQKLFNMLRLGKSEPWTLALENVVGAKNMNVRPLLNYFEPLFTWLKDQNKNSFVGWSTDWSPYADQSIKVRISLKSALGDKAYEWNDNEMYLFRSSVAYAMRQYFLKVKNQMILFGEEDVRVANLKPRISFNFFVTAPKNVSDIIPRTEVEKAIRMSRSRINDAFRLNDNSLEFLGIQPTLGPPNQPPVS

Row | Binder | binding result
1 | B1 | binds
2 | B2 | binds
3 | B3 | binds
4 | B4 | binds
5 | B5 | binds
